Source: the supplement of paper PMC9732359
± gives the uncertainty stated by the source.

Test: protein stability index of a GFP-peptide fusion (yeast GPS) (PSI 1-4); higher = more stable; sorted into four equal gates, so the index is relative within each strain
How it was run: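 The protein stability index combines read frequencies across sorting gates, each weighted by its gate number and then summed. To obtain those frequencies, a pooled yeast library of GFP fusions to tiled 17-residue yeast protein peptides, on a plasmid also expressing Cherry, was grown to mid-log phase in leucine-free medium. The cells were sorted into four equal gates by GFP/Cherry ratio before plasmid amplification by PCR and Illumina sequencing.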

Sequence | protein stability index (doa10∆) | protein stability index (pdr5∆) | protein stability index (san1∆) | protein stability index (ubr1∆)
TRSHEYGRKSFRNNKND [REC8] | 3.2 ± 0.11 | 3.16 ± 0.067 | 3.29 ± 0.051 | 3.3 ± 0.067
TRSLKYGKLRNGMFCQV [RRP4] | 1.42 ± 0.081 | 1.11 ± 0.1 | 1.09 ± 0.13 | 1.07 ± 0.12
TRSQFCLNTQRGDSTET [RRI1] | 3.07 ± 0.094 | 3.32 ± 0.094 | 3.22 ± 0.063 | 3 ± 0.076
TRVEGSGGGDSEVQRTM [RPT6] | 2.73 ± 0.098 | 2.65 ± 0.13 | 2.98 ± 0.087 | 3.19 ± 0.051
TRYELYIKNILEAPVKS [YLR335W/NUP2] | 1.67 ± 0.045 | 2.1 ± 0.054 | 1.66 ± 0.087 | 1.56 ± 0.057
TRYMFQRDFRKHGAVHL [RPL21A] | 2.42 ± 0.062 | 2.27 ± 0.069 | 2.33 ± 0.084 | 2.44 ± 0.092
TSASNTSMNGVHNTVAA [SNF5] | 2.66 ± 0.042 | 2.86 ± 0.04 | 2.9 ± 0.051 | 2.9 ± 0.047
TSEEQTKFLAKNGVIPE [SWP82] | 3.71 ± 0.26 | 3.6 ± 0.23 | – | 3.3 ± 0.098
TSFGQPQSAPNQMGMGT [YOR098C/NUP1] | 2.81 ± 0.094 | 2.83 ± 0.18 | 2.9 ± 0.15 | 2.41 ± 0.17
TSKTVSNQFKRSLATAV [COR1] | 2.47 ± 0.11 | 2.32 ± 0.075 | 2.34 ± 0.092 | 1.8 ± 0.056
TSLKKIKDEIDDPFTKI [SWI1] | 3.41 ± 0.17 | 3.24 ± 0.22 | – | 3.49 ± 0.13
TSTKPSFSFGAPESMKS [YOR098C/NUP1] | 2.97 ± 0.053 | 3.07 ± 0.062 | 3.15 ± 0.043 | 3.1 ± 0.046
TSTVNRLNTVTRVHQLM [MCD1] | 3.22 ± 0.12 | 1.49 ± 0.06 | 2.21 ± 0.2 | 2.57 ± 0.094
TSVENEGPVANLKDYEL [REC8] | 3.38 ± 0.11 | 3.41 ± 0.12 | 3.03 ± 0.13 | 3.16 ± 0.076
TSVQEKELMLQSKKLIE [YIL149C/MLP2] | 2.65 ± 0.089 | 2.94 ± 0.096 | 2.84 ± 0.084 | 2.91 ± 0.063
TTDNNNSGNSNSNSNQQ [RPT1] | 3.3 ± 0.12 | 2.93 ± 0.14 | 2.59 ± 0.23 | 3.36 ± 0.2
TTILSFSSPAALMKTLI [NUT1] | 1.65 ± 0.047 | 1.75 ± 0.05 | 2.09 ± 0.1 | 1.78 ± 0.054
TTPEKPEETPLEELAET [FAS2] | 3.28 ± 0.076 | 3.09 ± 0.074 | 3.28 ± 0.051 | 3.5 ± 0.051
TTQIDLFRIFSMSEEFK [BRR2] | 2.4 ± 0.14 | 3.12 ± 0.1 | 2.49 ± 0.23 | 3.12 ± 0.073
TTSVDVMLKGIVTALLE [SRP54] | 1.27 ± 0.047 | 1.22 ± 0.056 | 1.18 ± 0.1 | 1.11 ± 0.04
TTVFFSRQKSGLFDSFT [YML031W/NDC1] | 1.49 ± 0.042 | 1.45 ± 0.055 | 1.54 ± 0.11 | 1.55 ± 0.048

Sequence | protein stability index (doa10∆) | protein stability index (pdr5∆) | protein stability index (san1∆) | protein stability index (ubr1∆)
TTVQVAEEAIVNAMRVL [PRE4] | 2.91 ± 0.12 | 2.72 ± 0.091 | 1.88 ± 0.27 | 2.54 ± 0.09
TVAVLPPNWKYESATAS [RPS13] | 1.63 ± 0.036 | 2.06 ± 0.037 | 2.07 ± 0.055 | 1.97 ± 0.028
TVEPVYQMHIKTSKDIA [FAS1] | 1.29 ± 0.044 | 1.33 ± 0.063 | 1.31 ± 0.081 | 1.35 ± 0.065
TVINEQQREAVRQLYKG [RPL35A] | 3.44 ± 0.094 | 3.43 ± 0.14 | 3.13 ± 0.12 | 3.31 ± 0.079
TVKRGAAGIWTCSCCKK [RPL43A] | 1.68 ± 0.085 | 1.74 ± 0.058 | 1.74 ± 0.11 | 1.94 ± 0.062
TVLETLLSDVNQNQRNV [SMC3] | 3.23 ± 0.13 | 2.94 ± 0.057 | 3.01 ± 0.085 | 3.02 ± 0.082
TVQSERAFQKQPHIFNN [RPS11A] | 2.69 ± 0.051 | 2.58 ± 0.043 | 2.53 ± 0.045 | 2.79 ± 0.034
TVSRAYGGSRCANCVKE [RPL34A] | 2.4 ± 0.071 | 2.96 ± 0.068 | 2.43 ± 0.1 | 2.19 ± 0.043
TVWSANFEYDLSEYDAI [YOR098C/NUP1] | 2.86 ± 0.27 | 3.31 ± 0.19 | 2.98 ± 0.27 | 3.06 ± 0.1
TVYISSIALLKMLKHGR [RPN11] | 2.25 ± 0.085 | 2.09 ± 0.079 | 2.65 ± 0.054 | 2.79 ± 0.066
TVYSSEQYIQELDKRED [SMC3] | 2.76 ± 0.18 | 3.26 ± 0.24 | – | 3.47 ± 0.25
TWRTQLAASEIGISIVG [ECM29] | 1.72 ± 0.065 | 2 ± 0.083 | 1.68 ± 0.071 | 1.88 ± 0.037
TYDENDDFFKELAKEAK [ESC2] | 3.01 ± 0.11 | 2.83 ± 0.08 | 2.65 ± 0.073 | 3.08 ± 0.075
TYEMRIHKRYIDLEAPV [RPS20] | 2.17 ± 0.16 | 2.71 ± 0.15 | – | 2.51 ± 0.28
TYKYPSLKGVDPKFRRN [RPL29] | 3.03 ± 0.11 | 2.88 ± 0.25 | 2.97 ± 0.12 | 3.12 ± 0.09
TYSFIDNDRFNVVGKLI [YML103C/NUP188] | 2.34 ± 0.058 | 2.27 ± 0.06 | 2.07 ± 0.072 | 2.16 ± 0.04
VAALALLFAINSYQPSP [SMC1] | 1.62 ± 0.059 | 1.55 ± 0.073 | 1.89 ± 0.11 | 2.42 ± 0.055
VAFLDNDLGKFIPNKQL [RPN7] | 3.34 ± 0.17 | 3.02 ± 0.17 | 2.83 ± 0.26 | 2.88 ± 0.095
VAIAETDSWESFFVSVR [FAS1] | – | 3.05 ± 0.3 | – | –
VALPPGSNYNPYFPGGS [CYT1] | 2.32 ± 0.058 | 2.81 ± 0.064 | 2.65 ± 0.067 | 2.64 ± 0.036
VCDLALRFGEGASGEER [PUP2] | 2.75 ± 0.2 | 3.4 ± 0.2 | – | 3.1 ± 0.21
